This note sets out measurements from patent US6399759.

The IC50 is the concentration that inhibits the measured activity by half. High values mean lower potency, low ones higher potency.

What all share (assay): cell-based or functional assay
Experiment [1] deals with Soli C1 (Solenopsis invicta).
Experiment [2] deals with Soli C2 (Solenopsis invicta).
The target in experiment [3] is Soli E1 (Solenopsis invicta).
For experiment [4], the target named is T1, Soli E2 (Solenopsis invicta).
T1 sequence: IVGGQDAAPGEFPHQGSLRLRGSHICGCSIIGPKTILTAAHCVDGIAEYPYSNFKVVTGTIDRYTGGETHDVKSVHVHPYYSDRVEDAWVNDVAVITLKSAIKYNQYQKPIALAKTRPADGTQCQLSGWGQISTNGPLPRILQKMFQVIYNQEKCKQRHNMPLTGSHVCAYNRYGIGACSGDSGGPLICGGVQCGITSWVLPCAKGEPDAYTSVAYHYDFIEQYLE

Soli C1 (Solenopsis invicta), sequence (Q7SIG2 other isoform, or with tags, fused parts or gaps): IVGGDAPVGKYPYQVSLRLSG
Soli C2 (Solenopsis invicta), sequence (main, as listed by the source): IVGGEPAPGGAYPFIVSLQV
Soli E1 (Solenopsis invicta), sequence (main, as listed by the source): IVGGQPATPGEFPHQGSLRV

B1: Soy Bean Trypsin Inhibitor I-S (protein, soybean, UniProt P01070 25-205, looked up)
chain: DFVLDNEGNPLENGGTYYILSDITAFGGIRAAPTGNERCPLTVVQSRNELDKGIGTIISSPYRIRFIAEGHPLSLKFDSFAVIMLCVGIPTEWSVVEDLPEGPAVKIGENKDAMDGWFRLERVSDDEFNNYKLVFCPQQAEDDKCGDIGISIDHDDGTRRLVVSKNKPLVVQFQKLDKESL
As to B1, the IC50 was determined as 37 nM in experiment [1], 1.41 nM in experiment [2], 4.22 nM in experiment [3] and 5.58 nM in experiment [4].
